Biological target: the molecule itself
Experiment: AUC + other: dynamic light scattering

B1: SARS-CoV ORF-9b protein (natural protein)
chain: MDPNQTNVVPPALHLVDPQIQLTITRMEDAMGQGQNSADPKVYPIILRLGSQLSLSMARRNLDSLEARAFQSTPIVVQMTKLATTEELPDEFVVVTAK
stoichiometry N: 2
